Two molecules from publication PMC11359169, “[…] CLOCK-ASSOCIATED1 Delays Flowering by Directly Inhibiting the Transcription of BcSOC1 in Pak-choi” can be followed below.

One data set deals with BcCCA1 (Brassica campestris (syn. Brassica …, UniProt F5B4H3 1-554)). The experiment in a line: EMSA; cold probe competition 10x, 100x, 250x; Chemiluminescent EMSA kit (Beyotime); buffer, salt, pH and temperature not stated. As to conditions: protein: recombinant; tags: His (pCold-His); label: biotin (5' and 3' ends per Methods); blunt. On the technique in general: In EMSA bound probe runs differently from free probe, usually more slowly.
BcCCA1 (Brassica campestris, sequence (F5B4H3 entry or part of it): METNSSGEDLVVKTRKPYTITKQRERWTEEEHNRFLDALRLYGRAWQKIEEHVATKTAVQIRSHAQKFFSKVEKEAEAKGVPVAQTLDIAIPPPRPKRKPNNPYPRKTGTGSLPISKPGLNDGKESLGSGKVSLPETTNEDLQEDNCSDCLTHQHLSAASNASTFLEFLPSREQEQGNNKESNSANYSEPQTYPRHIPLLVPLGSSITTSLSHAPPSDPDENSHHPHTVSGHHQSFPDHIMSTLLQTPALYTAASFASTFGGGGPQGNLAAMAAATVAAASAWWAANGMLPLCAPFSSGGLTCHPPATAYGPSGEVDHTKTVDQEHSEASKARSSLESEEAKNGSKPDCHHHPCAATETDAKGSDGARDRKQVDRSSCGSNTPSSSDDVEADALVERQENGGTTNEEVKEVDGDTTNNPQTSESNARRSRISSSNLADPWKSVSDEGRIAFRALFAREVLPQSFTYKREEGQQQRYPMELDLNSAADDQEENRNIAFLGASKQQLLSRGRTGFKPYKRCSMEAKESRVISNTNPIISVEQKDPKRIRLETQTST

In a further data set the target is BcFLC (Brassica campestris (syn. Brassica …, UniProt A4L9R7 1-196)). The data set is described as above. As to conditions: protein: recombinant; tags: GST (pGEX-4T-1); chain copies: 2; label: biotin (5' and 3' ends per Methods); blunt.
BcFLC (Brassica campestris, sequence (A4L9R7 entry or part of it): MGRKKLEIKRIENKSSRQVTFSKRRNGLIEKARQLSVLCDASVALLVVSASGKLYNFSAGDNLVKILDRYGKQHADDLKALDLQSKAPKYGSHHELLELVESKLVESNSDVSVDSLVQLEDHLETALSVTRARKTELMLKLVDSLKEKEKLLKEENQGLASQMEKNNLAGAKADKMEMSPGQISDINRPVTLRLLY

B1: MBS probe (BcSOC1 promoter) (dsDNA)
DNA 1: TCCCCGTCAACGTATGTTGA
DNA 2: TCAACATACGTTGACGGGGA
Consider B1, for which, in the data set with BcCCA1, the binding result is given as “binds”.

B2: GATA probe (BcSOC1 promoter) (dsDNA)
DNA 1: GTAAAGGATGAGGTTTCAAG
DNA 2: CTTGAAACCTCATCCTTTAC
As for B2, the binding result in the data set with BcFLC was “binds”.
